Laboratory results from US20160199445A1, “USE OF ARPIN A NEW INHIBITOR OF THE ARP2/3 COMPLEX FOR THE DIAGNOSIS AND TREATMENT OF DISEASES” (CENTRE NATIONAL DE LA RECHERCHE SCIENTIFIQUE, priority 2013, published 2016).

Experiments:
Purified Arp2/3 complex [1] = assay: fluorescence anisotropy, competition with labelled ArpinA bound to purified Arp2/3 complex
Purified Arp2/3 complex [2] = assay: fluorescence anisotropy; labelled ArpinA peptide bound to purified Arp2/3 titrated with purified Arpin FL

In the case of “Human full length Arpin (residues 1-226), purified from E. coli, cleaved off GST by TEV protease (from UniProt Q7Z6K5 1-226)”, the IC50 (read off the curve) (Purified Arp2/3 complex [1]) is reported as 300 nM, the Kd (Purified Arp2/3 complex [1]) is reported as 205 nM and the Kd (Purified Arp2/3 complex [2]) is reported as 200 nM.
